The results in this text go back to paper doi:10.1101/2025.09.12.675771 (bioRxiv, 2025).

For test [1], the target named is Programmed death-ligand 1 (PD-L1) (Homo sapiens (assumed), UniProt Q9NZQ7). Nature of the test: SPR; format and conditions not told. As to conditions: both partners purified.
The target in test [2] is SARS-CoV-2 RBD (residues 332-527), wild type (SARS-CoV-2, wild type (Wuhan-Hu-1), UniProt P0DTC2).
The next test has as its target RBD of COVID-19 (SARS-CoV-2, wild type (Wuhan-Hu-1) …, UniProt P0DTC2).

Chain of Programmed death-ligand 1 (PD-L1) (Q9NZQ7 19-290): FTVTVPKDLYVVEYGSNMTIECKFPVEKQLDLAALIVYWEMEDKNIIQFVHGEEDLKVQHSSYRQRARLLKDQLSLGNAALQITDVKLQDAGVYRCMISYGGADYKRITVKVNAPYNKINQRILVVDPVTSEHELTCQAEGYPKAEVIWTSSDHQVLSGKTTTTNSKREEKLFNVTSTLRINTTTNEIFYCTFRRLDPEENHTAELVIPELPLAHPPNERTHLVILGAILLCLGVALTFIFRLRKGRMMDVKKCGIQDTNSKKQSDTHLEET

B1: D1 (antibody, V domains shown)
VH: not shown
VL: DIQMTQSPSTLSASVGDRVTITCKASQDVNTAVAWYQQKPGKAPKLLIYWASTLHTGVPSRFSGSGSGTEFTLTISSLQPDDFATYYCQHYYTDPWTFGQGTKVEIK
B1 showed a Kd in test [1] of 0.084 nM. This counts as picomolar.

B2: R1-32-Q61E-WT (antibody, V domains shown)
VH: EVQLVQSGAEVKKPGSSVKVSCKASGGTFSSYFISWVRQAPGQGLEWMGGIIPILGIADYAEKFQGRVTITADKSTSTAYMELSSLRSEDTAVYYCARENGYSGYGAAYNFDLWGRGTLVTVSS
VL: QSVLTQPPSVSGAPGQRVTISCTGSDSNIGAGYDVHWYQQLPGTAPKLLIYGNSNRPSGVPDRFSGSKSGTSASLAITGLQAEDEADYYCQSYDSSLSGSVFGGGTKLTVL
As for B2, the binding result in test [2] was “binds”.

B3: Human-1 (antibody, V domains shown)
VH: QVQLKESGPGLVKPSQTLSLTCTVSGFSLINYAISWIRQPPGKGLEWIGVIWTGGGTNYNSALKSRLTISKDTSKNQVSLKLSSVTAADTAVYYCARKDYYGRYYGMDYWGQGTTVTVSS
VL: QAVVTQEPSFTVSPGGTVTLTCRSSTGAVTTSNYANWYQQTPGQLFTGLIGGTNNRAPGVPDRFSGSLLGDKAALTITGAQADDEAIYYCALWYNNHWVFGGGTKLTVL
B3: in the test with RBD of COVID-19, the affinity, expressed as Kd, was 0.171 nM.

B4: Human-5 (antibody, V domains shown)
VH: QVQLQESGPGLVKPSETLSLTCTVSGFSLINYAISWVRQPPGKGLEWLGVIWTGGGTNYNSALKSRLTISKDNSKNTVYLKMNSLKTEDTARYYCARKDYYGRYYGMDYWGQGTLVTVSS
VL: QAVVTQEPSFSVSPGGTVTLTCRSSTGAVTTSNYANWVQETPGQAFRGLIGGTNNRAPGVPDRFSGSLLGNKAALTITGAQADDESIYYCALWYNNHWVFGGGTKLTVL
In the case of B4, the Kd in the test with RBD of COVID-19 was determined as 0.139 nM.

B5: D3 (antibody, V domains shown)
VH: not shown
VL: DIQMTQSPSTLSASVGDRVTITCRASQTIGTWLAWYQQKPGKAPKLLIYTATSLADGVPSRFSGSGSGTEFTLTISSLQPDDFATYYCQQVSSNPRTFGQGTKVEIK
With B5, the binding result in test [1] was “binds”.

B6: D2 (antibody, V domains shown)
VH: not shown
VL: DIQMTQSPSTLSASVGDRVTITCRASQDVSSYLAWYQQKPGKAPKLLIYAASFLQSGVPSRFSGSGSGTEFTLTISSLQPDDFATYYCQQHYSTPPTFGQGTKVEIK
As to B6, the binding result in test [1] is reported as “binds”.

B7: D4 (antibody, V domains shown)
VH: EVQLLESGGGLVQPGGSLRLSCAASGFTFSNYAMSWVRQAPGKGLEWVSAISSGGGYTYYADSVKGRFTISRDNSKNTLYLQMNSLRAEDTAVYYCAKDHDYAYYAFDYWGQGTLVTVSS
VL: DIQMTQSPSTLSASVGDRVTITCRASQSISNWLAWYQQKPGKAPKLLIYWASTLESGVPSRFSGSGSGTEFTLTISSLQPDDFATYYCQQYASTPLTFGQGTKVEIK
B7: the binding result in test [1] was “binds”.
